Results from publication PMC4629677.

Target: microtubule (sea-urchin sperm axonemes) (sea urchin (sperm axonemes))
Assay: single-molecule fluorescence imaging

duration time on MT (diffusive mode) [s] | duration time on MT (short stop mode) [s] | Substance
1.73 |  | tail-GFP (kinesin tail 904-963 fused to EGFP) (from UniProt P33176 904-963) (domain or fragment)
 | 1.47 | 2T-K490CLM, two-tail stalk-truncated cysteine-light mutant kinesin (motility and ATPase experiments) (from UniProt P33176 1-490; P33176 904-963)
